In general, EC50 (read off the curve) refers to the concentration at which the effect is half-maximal. Low values mean a more potent agent, high ones a less potent agent.

From US20080311122A1 (AstraZeneca / MedImmune, published 2008) come the findings set out here.

Test [1] has as its target T1, HMGB1 in joint lysates of adjuvant induced arthritis (AIA) rats (rat, UniProt P63159 2-215).
T1 construct: also called HMGB1 from arthritis joints; AA joint lysates
T1 sequence (looked up): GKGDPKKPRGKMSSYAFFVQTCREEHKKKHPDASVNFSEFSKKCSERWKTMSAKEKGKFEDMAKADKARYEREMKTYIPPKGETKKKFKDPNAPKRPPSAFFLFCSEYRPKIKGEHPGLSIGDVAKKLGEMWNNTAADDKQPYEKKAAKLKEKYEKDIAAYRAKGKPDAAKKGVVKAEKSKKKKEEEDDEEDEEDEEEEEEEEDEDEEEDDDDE
In words: immunoprecipitation from AIA rat joint lysate, Western blot probed with biotinylated S16 (the method names G4, S6 and isotype control, the legend names S16 for lane 2). As for the experimental part:
Immunoprecipitation and Western Blot: Anti-HMGB1 mAbs (G4 and S6) and isotype control were first biotinylated using EZ-Link Sulfo-NHS-LC-Biotin as instructed by the manufacturer (Pierce). After labeling, the mAb was tested for binding to HMGB1 by ELISA with unlabeled mAbs as controls. The biological samples, joint lysate (30 μl), was mixed with […] biotinylated G4, S6 or isotype control overnight at 4° C. in 300 μl IP buffer [containing 1×PBS, pH 7.2 (Invitrogen), 0.1% Tween 20, 0.5 M sodium chloride, 10 mM sodium butyrate, and a 1:100 dilution of Phosphatase Inhibitor Cocktail I (Sigma)]. For sepsis sera, Tween 20, sodium chloride, sodium butyrate, and Phosphatase Inhibitor Cocktail I were added to 500 μl sera with the same final concentration as IP buffer. Streptavidin Sepharose beads (GE Healthcare) were blocked in 4% BSA-PBS overnight at 4° C., then washed three times with PBS and resuspended in 1×PBS resulting in 50% slurry. The bead slurry (60 μl) was then added to the overnight mAb/sample mixture and mixed for 20 minutes at room temperature. The beads were washed once with PBS, five times with IP Buffer and then washed twice with PBS by spinning at 1000 g for two min. […] The bands were detected by LumiGlo substrate solution (KPL) after washing.

In test [2] the target is T2, native nuclear HMG1 prepared from 293H cells by freeze thaw (human, UniProt P09429 1-215).
T2 construct: unpurified cell lysate supernatant
T2 sequence (looked up): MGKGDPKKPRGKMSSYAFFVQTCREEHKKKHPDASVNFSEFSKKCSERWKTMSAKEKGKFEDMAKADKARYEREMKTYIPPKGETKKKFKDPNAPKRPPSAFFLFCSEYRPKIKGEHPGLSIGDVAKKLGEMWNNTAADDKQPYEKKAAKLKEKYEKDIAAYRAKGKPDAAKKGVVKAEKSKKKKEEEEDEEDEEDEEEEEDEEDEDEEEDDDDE
In words: sandwich ELISA: antibody captured on anti-human IgG Fc, native HMGB1 0.7 ug/ml in solution, mouse anti-HMGB1 and anti-mouse IgG-HRP, OD 450. As for the experimental part:
Sandwich ELISA (soluble HMG1): Immunoplates (EIA/RIA plate, High binding, Costar) were coated with anti human IgG Fc at 10 μg/ml in PBS (pH 7.2) and incubated at 4° C. overnight. The coating reagent was removed and the plates were rinsed briefly with PBS. The plates were then blocked with 4% milk for 1 hour at 37° C. and rinsed with PBS. The anti-HMG1 antibodies were diluted in 4% milk. For serial dilutions, the antibodies were used at a starting concentration of 20 μg/ml. The diluted anti-HMG1 antibodies were then added into plate and incubated for 1 hr at 37° C. The plate was then washed 10 times with PBST (PBS/0.1% tween 20) and incubate with antigen (HMGB1, 2 μg/ml; or 0.7 μg/ml for native HMGB1) in 4% milk and incubated at 37° C. for 1 h. The plate was then wash 10 times and incubated with mouse anti-HMGB1, 1 μg/ml in 4% milk at 37° C. for 1 h. The plate was washed 10 times and incubated with anti-mouse IgG-HRP at 1:1000 at 37° C. for 1 h. The plate was then washed and developed. HRP activity was detected with Sureblue HRP substrate (KPL). Plates were read at 450 nm using a Kinetic Microplate Reader (Molecular Devices).

B1: anti-HMG1 antibody S16 (antibody, V domains shown)
VH: EVQLLESGGGLVQPGGSLRLSCAASGFTFSWYSMLWVRQAPGKGLEWVSYISPSGGFTNYADSVKGRFTISRDNSKNTLYLQMNSLRAEDTAVYYCARWDYNSGWYYDHWGQGTLVTVSS
VL: DIQMTQSPDTLSLSPGERATLSCRASQSVNSRNLAWYQQKPGQAPRLLIYGASTRATGIPDRFSGSVSGTEFTLTISSLQPDDFATYYCQQYNSYFTFGQGTKLEIK
notes: also called ATCC PTA-6259
As for B1, the binding result in test [1] is “binds”.

B2: anti-HMG1 antibody S2 (antibody, V domains shown)
VH: EVQLLESGGGLVQPGGSLRLSCAASGFTFSGYMMVWVRQAPGKGLEWVSRISPSGGQTGYADSVKGRFTISRDNSKNTLYLQMNSLRAEDTAVYYCAREEGGSYGAFDIWGQGTMVTVSS
VL: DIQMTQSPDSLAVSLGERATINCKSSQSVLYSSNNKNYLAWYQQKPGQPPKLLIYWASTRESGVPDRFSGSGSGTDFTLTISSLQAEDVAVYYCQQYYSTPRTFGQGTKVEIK
notes: also called ATCC PTA-6142
As to B2, the “EC50 (read off the curve)” value in test [2] is around 0.8 µg/mL.
